Experiment: yeast display, Sf9 membrane polyspecificity reagent, FACS + sequencing; frameworks hold sequencing errors
Procedure, shortened: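 Synthetic nanobody libraries on Saccharomyces cerevisiae BJ5465 were galactose-induced for 36–48 hours, stained 1 hour at 4 °C with 10% biotinylated, detergent-solubilized Sf9 membrane reagent and enriched on streptavidin microbeads. FACS then separated cells into low and high (top ~1%) gates by anti-HA (expression) and streptavidin (reagent binding) fluorescence. Genes were colony-PCR amplified, MiSeq 2 × 250 sequenced and CDR-length filtered. A clone's polyreactivity label is that of its gate of origin.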

Sequence	polyreactivity (PSR sort gate)
QVQLVESGGGLVQAGGSLRLSCAASGRTFAINAMGWSRQAPGKEWELVASIRWTDGTTYYADSVKGRFTISRDNAKNTVYLQMNSLKPEDTAVYYCAADAEGSASKYDYWGQGTQVTVSS	low polyreactivity
QVQLVESGGGLVQAGGSLRLSCAASGRTFAINTMGWYRPAPGKEREFVASITRRGGSTYYADSVKWRFTISRDNAKNTVYLQMNSLKREDNAVYYCNAELRWRLPARAAYYYWGQGTQVTFSS	high polyreactivity
QVQLVESGGGLVQAGGSLRLSCAASGRTFAIYAMGWSRQAPGKERELVAAIRWRDGSTYYADSVKGRFTISRDNAKNTVYLQMNSLKPEDTAVYYCAATSRVYVRGSYWKYGYWGQGTQVTVSS	high polyreactivity
QVQLVESGGGLVQAGGSLRLSCAASGRTFAIYVMGWYRQAPGKERELVAAISRSGGNTYYADSVKGRFTISRDNAKNTVYLQMNSLKPEDTAVYYCAARVRERYYWGQGTQVTVSS	high polyreactivity
QVQLVESGGGLVQAGGSLRLSCAASGRTFAKYAMGWYRQAPGKEREFVAAITRGDTTNYADSVKGRFTISRDNAKNTVYLQMNSLKPEDTAVYYCNADSLYYDYQTVDVQALDYWGQGTQVTVSS	low polyreactivity
QVQLVESGGGLVQAGGSLRLSCAASGRTFALNAMGWYRQAPGKERELVAAISWSSGRTYYADSVKGRFTISRDNAKNKVYLQMNSLKPEDTAVYYCAALVAHKGDYWGQGTQVTVSS	high polyreactivity
QVQLVESGGGLVQAGGSLRLSCAASGRTFALNAMGWYRQAPGKERELVAAISWSSGRTYYADSVKGRFTISRDNAKNTDYLKMNSLKPEDSAVYYCAALVAHKGDYWGQGTQVTVSS	high polyreactivity
QVQLVESGGGLVQAGGSLRLSCAASGRTFALYAMGWYRQAPGKERELVAAITFSGGSTSYADSVKGRFTISRDNAKYTVYLQMNSLKPEDTAVYYCAAYWYSLYYLYPYDYWGQGTQVTVSS	low polyreactivity
QVQLVESGGGLVQAGGSLRLSCAASGRTFAPYAMGWYRQAPGKERELVARITWSGTDTYYADSVKGRFTISRDNAKNNVYLQMNSLKPEDTAVYYCAADARYSRRYYYWGQGTQVTVSS	low polyreactivity
QVQLVESGGGLVQAGGSLRLSCAASGRTFAQYAMGWYRQAPGKERELVAGISRSGGSTYYADCVKGRFTISRDNAKNTVYLQMNSLKPEDTAVYYCAARWRGARWYYYWGQGTQVTVSS	high polyreactivity
QVQLVESGGGLVQAGGSLRLSCAASGRTFARNAMGWSRQAPGKERELVAAITRSGGSTYYADSVKGRFTISRDNAKNTVYLQMNSLKPEDTAVYYCAAVGTGSSLRYGYWGQGTQVTVSS	high polyreactivity
QVQLVESGGGLVQAGGSLRLSCAASGRTFARNAMGWYRQAPGKERELVAAISSSGGSTYYADSVKGRFTISRDNAKNTVYLQMNSLKPEDTAVYYCARYSSFTYDYWGQGTQVTVSS	high polyreactivity
QVQLVESGGGLVQAGGSLRLSCAASGRTFARYAMGSYRQAPGKERELDAAITSGGSTNYADSVKGRFTISRDNAKNTVYLQMNSLKPEDTAVYYCNARRRAPKGPIPAGNYWGQGTQVTVSS	high polyreactivity
QVQLVESGGGLVQAGGSLRLSCAASGRTFARYAMGWYRQAPGKERELVAAISSGGSTYYADSVKGRFTISRDNAKNTVYLQMNSLKPEDTAVYYCAAEWHYIYAYDYWGQGTQVTVSS	low polyreactivity
QVQLVESGGGLVQAGGSLRLSCAASGRTFARYVMGWYRQAPGKERELVAAINSGGNTYYADSVKGRFTISRDNAKNTVYLQMNSLKPEDTAVYYCAVKAARTYYWGQGTQVTVSS	high polyreactivity
QVQLVESGGGLVQAGGSLRLSCAASGRTFARYVMGWYRQAPGKERELVAAISGGGGSTYYADSVKGRFTISRDNAKNTVYLQMNSLKPEDTAVYYCAAVPEGPNTGDDANGLDYWGQGTQVTVSS	low polyreactivity
QVQLVESGGGLVQAGGSLRLSCAASGRTFATYAMAWYRQAPGKERELVAAISRSGSTTYYADSVKGRFTISRDNAKNTVYLQMNSLKPEDTAVYYCNAKFRKADYDYWGQGTQVTVSS	high polyreactivity
QVQLVESGGGLVQAGGSLRLSCAASGRTFATYAMGWYRQAPGKERELVAAITSGGSTYYADSVKGRFTISRDNAKNTVYLQMNSLKPEDTAVYYCAAARKYYGYNYWGQGTQVTVSS	high polyreactivity
QVQLVESGGGLVQAGGSLRLSCAASGRTFAVNALGWYRQAPGKERELVAAIRTGSTYYADSVKGRFTISRDNAKNTVYLQMNSLKPEDTAVYFCAAPYRADSYDYWGQGTQVTVSS	high polyreactivity
QVQLVESGGGLVQAGGSLRLSCAASGRTFAVNGKGWYRPAPGKERELVAAISSGGSTNYADSVKARFTISRDNAKNTVYLQLNSLKPEDTAVYYCAADYTRAHISYYYWGQGTQVTVSS	high polyreactivity
QVQLVESGGGLVQAGGSLRLSCAASGRTFAVYAMGWYRQAPGKERELVAAISYSGDSTYYADSVKGRFTISRDNAKYTVYLQMNSLKPEDTAVYYCAADFLVGLTAVAYEYWGQGTQVTVSS	low polyreactivity

Sequence	polyreactivity (PSR sort gate)
QVQLVESGGGLVQAGGSLRLSCAASGRTFAVYAMGWYRQAPGKERELVAAITYGGGRTSYADSVKGRFTISRDYAKNTVYFQMKRLKPEDTAVYSCAADYYGTDYDYWGQGTQVTVSS	low polyreactivity
QVQLVESGGGLVQAGGSLRLSCAASGRTFAWNTMGWYRQAPGKERELLAAISGSGGSTYYADSVKGRFTISRDYAKNTVYLQMNSLKPEDTAVYYCARRVDSYYGHTLYYYWGQGTQVTVSS	high polyreactivity
QVQLVESGGGLVQAGGSLRLSCAASGRTFAWYTMGWSRQEPGKERELVAAISGSGGSTYYADSVKGRFTISRDNAKNTVYLQMNSLKPEDTAVYYCARRVDSYYGHTRYYYWGQGTQVTVSS	high polyreactivity
QVQLVESGGGLVQAGGSLRLSCAASGRTFAWYTMGWYRKAPGKERELVAAISGSGGSTYYADSVKGRFTISRDNAKNTVYLQMNSLKPEDSAVYYCARRVDSYYGHTRYYYWGQGTQITVSS	high polyreactivity
QVQLVESGGGLVQAGGSLRLSCAASGRTFAYNAMGWYIQAPGKERELVASITSGGSTNYADSVKGRFTISRDNAKNTVYLQMNSLKPEDTAVYYCNKDGKYHRVLYDYWGQGTQVTVSS	low polyreactivity
QVQLVESGGGLVQAGGSLRLSCAASGRTFAYNAMGWYRQAPGKEREFVAGISRSGGSTYYADSVKGRFTISRDNAKNTVYLQMNSLKPEDTAVYYCAAQFYALPNVGTKYYSWGQGTQVTVSS	low polyreactivity
QVQLVESGGGLVQAGGSLRLSCAASGRTFAYNAMGWYRQAPGKERELVAAISRSGTITYYADSVKGRFTISRDNAKNTVYLQMNSLKPEDTAVYYCNKASTYPSYDYWGQGTQVTVSS	high polyreactivity
QVQLVESGGGLVQAGGSLRLSCAASGRTFAYNDMGWYRQAPGKERELGAAISWSDGTTYYADSVKGRFTISRDNAKNTVYLQMYSLKPEDTAVYYCNADDYLTSIYRYDYWGQGTQVTVSS	low polyreactivity
QVQLVESGGGLVQAGGSLRLSCAASGRTFAYNDMGWYRQAPGKERELVAAITSVASTYYADSVKGRFTISRDNAKNTVYLQMNSLKPEDTAVYYCAADTRSLRPRYQLYGEDSWGQGTQVTVSS	low polyreactivity
QVQLVESGGGLVQAGGSLRLSCAASGRTFAYNTMGWYRQAPGKEREFVAAIDSGDSTYYADSVKGRFTISRDNAKNTVYLQMNSLKPEDTAVYYCAARRYYGYDYWGQGTLVTVSS	high polyreactivity
QVQLVESGGGLVQAGGSLRLSCAASGRTFAYNTMGWYRQAPGKERELVAAITSGGSTYYADSVKGRFTISRDNAKNTVYLQINSLKPEDTAVYYCSAVDYWDYFYWRDDYWGQGTQVTVSS	low polyreactivity
QVQLVESGGGLVQAGGSLRLSCAASGRTFAYNVMGGYRQAPGKERELVAGISFGAGSTYYADSVKGRFTISRDNAKNTVYLQMNSLNPEDTAVYYCATRRRGTRYQLGYDYWGQGTQVTVSS	high polyreactivity
QVQLVESGGGLVQAGGSLRLSCAASGRTFAYYAMGWYRQAPGKERELVAAISTSGTRTYYADSVKGRFTISRDNAKNTVYLQMNSLKPEDTAVYYCAARYRYQYEFDYWGQGTQVTVSS	high polyreactivity
QVQLVESGGGLVQAGGSLRLSCAASGRTFAYYVMGWDRQAPGKERELVAAISWSAGSTYYADSVKGRFTISRDNAKNTVYLQMNSLKPEDTAVYYCAADYRFRYEYWGQGTQVTVSS	low polyreactivity
QVQLVESGGGLVQAGGSLRLSCAASGRTFDDYAMGWDRQAPGKERELVAAITQNGRDTYADSVKGRFTISRDNSKKYRLFTDVQPVTGRYRGLLLRCVRYEVNLYDYWGQGTQVTVST	low polyreactivity
QVQLVESGGGLVQAGGSLRLSCAASGRTFDGNAMGWYRQAPGKEGEFVATISTDGGSTHYADSVKGRFTISRDNAKNTVYLQMNSLKPEDTAVYYCAADTPWYDDNYDYWGQGTQVTVSS	low polyreactivity
QVQLVESGGGLVQAGGSLRLSCAASGRTFDGNAMGWYRQAPGKERELVAAISQGGGSTYYADSVKGRFTISRDNAKNTVYLQMNSLKPEDTAVYYCNAVGYTPRKPSKFDYWGQGTQVTVSS	low polyreactivity
QVQLVESGGGLVQAGGSLRLSCAASGRTFDGYAMGWYRQAPGKERELVAAISTSGVRTYYADSVKGRFTISRDNAKNTVYLQMNSLKPEDTAVYYCAADWTGGYEYWGQGTQVTVSS	high polyreactivity
QVQLVESGGGLVQAGGSLRLSCAASGRTFDGYMGWYRQAPGKERELVAAISYDTGSTYADSVKGRFTISRDNAKNTVYLQMNSLKPEDTAVYYCYGYPYQTLYGYWGQGTQVTVSS	low polyreactivity
QVQLVESGGGLVQAGGSLRLSCAASGRTFDHYAMGWYRQAPGKERELVAAITSGGSTYYADSVKGRFTISRDNAKNTVYLQRNSLKPEDTAVYYCNKDSSFWGYYIAQVNERDYWGQGTQVTVSS	low polyreactivity
